# Data as given in the RNAGym collection of RNA variant scans (doi:10.1073/pnas.2313332121).
# B1: TPR t1 (parent)
# chain: GACCAAUCUGCCCUCAGAGCUCGAGAACAUCUUCGGAUGCAGAGGAGGCAGGCUUCGGUGGCGCGAUAGCGCCAACGUCCUCAACCUCCAAUGCAUCCCACCACAUGAUGAUGCCUGAAGAGCCUUGGUUUUUUG
# Variants of: B1
# Assay: polymerase ribozyme fitness, log enrichment relative to wild type (log ratio); higher = more active; in vitro selection for triplet polymerase activity
# Summary of the method: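 Mutant libraries for each subunit of a heterodimeric triplet polymerase ribozyme were made by PCR and then transcribed. Each library underwent one round of in vitro selection in triplicate: annealing with a biotinylated primer, the partner subunit and triplets, frozen incubation at −7 °C, gel excision of extended constructs, streptavidin-bead capture and RT-PCR. Input and output libraries were Illumina-sequenced, and only genotypes with ≥10 input reads and ≥1 read per output were kept. Fitness is the logarithm, base 2, of genotype enrichment over wild-type enrichment, computed from inverse-variance-weighted replicate averages.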
row,Variant,polymerase ribozyme fitness (log ratio)
1,GACCAAUCUGCCCUCAGAGCUCGAGAACAUCUUCGGAUGCAGAGUAGGCAGGCUUCGGUGGUGCGAUAGCGCCAACGUCCUCAACCUCCAAUGCAUCCCACCACAUGAUGAUGCCUGAAGAGCCUUGGUUUUUUG,-1.63
2,GACCAAUCUGCCGUCAGAGCUUGAGAACAUCUUCGGAUGCAGAGGAGGCAGGCUUCGGUGGCGCGAUAGCGCCAACGUCCUCAACCUCCAAUGCAUCCCACCACAUGAUGAUGCCUGAAGAGCCUUGGUUUUUUG,-3.6
3,GACCAAUCUGCCCUCAGAGCUCGAGAACAUCUUCGGAUGCAGAGGAGGCAGGCUUCGGUGGCGCGGUAGCGCCAACGUCCUCCACCUCUAAUGCCUCCCACCACAUGAUGAUGCCUGAAGAGCCUUGGUUUUUUG,-2.97
4,GACCAAUCUGCCCUCAGAGCUCGAGAACAUCUUCGGAUGCAGAGGAGGCAGGCUUCGAUGGCGCGAUAGCGCCAACGUCCUCAACCUCCAAUGCAUCCCACCACAUGAUGAUGCCUGAAGAGCCUUGGUUUUUUG,0.0445
5,GACCAAUCUGCCCUCAGAGCUCGAGAACAUCUUCAGAUGCAGAGGAGGCAGGGUUCGGUGGUGCGAUAGCGCCAACCUCCUCACCCUCCAAUGCAUCCCACCACAUGAUGAUGCCUGAAGAGCCUUGGUUUUUUG,-4.08
6,GACCAAUCUGCCCUCAGAGCUCGAGAACAUCUUCGGAUGCCGAGGAGGCAGGCUUCGGUGGCGCGAUAGCGCCAACGUCCUCAAUCUCCAAUGCAUCCCACCACAUGAUGAUGCCUGAAGAGCCUUGGUUUUUUG,-2.37
7,GACCAAUCGGCCCUCAGAGCUCGAGAACAUCUUCGGAUGCAGAGGAGGCAGGCUUCGGUGGCGCGAUAGCGCCAACAUCCUCAACCUCCAAUGCAUCCCACCACAUGAUGAUGCCUGAAGAGCCUUGGUUUUUUG,0.17
8,GACCAAUCUGCCCUCAGAGCUCGAGAACAUCCUCGGAUGCAGAGGAGGCAGGCUUCGGUCGCGCGAUAGCGCCACCGUGCUCAACCUCCAAUGCAUCCCACCACAUGAUGAUGCCUGUAGAGCCUUGGUUUUUUU,-2.26
9,GACCAAUCUGCCCUCAGAGCUCGAGAACAUCUUUGGAUGCAGAGGAGGCAGGCUUCGGUGGCACGAUAGCGCCAACGUCCUCAACCUCCGAUGCAUCCCACCACAUGAUGAUGCCUGAAGAGCCUUGGUUUUUUG,-6.16
10,GACCAAUCAGCACUCAGAGCUCGAGAACAUCUUCGGAUGCAGAGGAGGCAGGCUUCGGUGGCGCGAUAGCGCCAACGUCCUCAACCUUCAAUGCAUCCCACCACAUGAUGAUGCCUGAAGAGCCUUAGUUUUUUG,-2.52
11,GACCUAUCUGCCCUCAGAGCUCGAGAACAUCUUCGGAUGCAGAGGAGGCAGGCUUCGGUGGCGCGAUAGCGCCAACGUCCUCAACCUCCAAUGCAUCCCACCACAUGAUGAUUCCUGAAGAGCAUUGGUUUUUUG,-3.25
12,GACCAGUCUGCCCUCAGAGCUCGAGAACAUCUUCGGAUGCAGAGGAGGCAGGCUUCGGUGGCGCGAUAGCGCCAACGUCCUCAACCUCCAAUGCAUCUCACCACAAGAUGAUGCCUGAAGAGCAUUGGUUUUUUG,1.28
13,GACCAAUCUGCCCUCAGAGCUCGAGAACAUCUUCGGAUGCAGAGGAGGCUGGCUUGGGUGGCGCGAUAGCGCCAACGUCCUCAACCUCCAAUGCAUCCCACCACAUGAUGAUGCCUGAAGAGCCUUGGUUUUUUG,-1.76
14,GACCAAUCUGCCCUCAGAGCUCGAGAACAUCUUCGGAUGCAGAGGACGCAGGCUUCGGUGGCGCGAUAGCGCCAACGUCCUCAACCUCCAAUUCAUCCCACCACAUGAUGAUGCCUGAAGAGCCUUGGUUUUUUG,-3.69
15,GACCAAUCUGCCCUCAGAGCUCGAGAACAUCUUCGGAUGCAGAGGAGGCAGGCUUCGGUGGCGCGAUAGCGCCAACGUCCUCAACCUCCAAUGAAUCCCACCACAUGAUGAUGCCUGAAGAGCCAUGGUUUUUUG,-0.423
16,GAUCAAUCUGCCCUCAGAGCUCGAGAACAUCUUCGGAUGCAGAGGAAGGAGGCUUCGGUGGCGCGAUAACGCCAACGUCCUCAACCUCCAAUGCAUCCCACCACAUGAUGAUGCCUGAAGAGCCUUGGUUUUUUG,-4.22
17,GACCAACCUGCCCUCAGAGCUCGAGGACAUCUUCGGAUGCAGAGAAGGCAGGCUUCGGUGGCGCGAUAGCGCCAACGUCCUCAACCUCCAAUGCAUCCCACCACAUGAUGAUGCCUGAAGAGCCUUGGUUUUUUG,-2.55
18,GACCAAUCUGCCUUUAGAGCUCGAGACCGUCUUCGGAUGCAGAGGAGGCAGGCUUCGGUGGCGCGAUAGCGCUAACGUCCUCAACCUCCAAUGCAUCCCACCACAUGAUGAUGCCUGAAGAGCCUUGGUUUUUUG,-4.69
19,GACCAAUCUGCCCUCAGAGCUCGAGAACAUCCUCGGAUGCAGAGGAGGCAGGCUUCGGUGGCGCGAUAGCGGCAACGUCCUCAACCUCCAAUGCAUCCCACCACAUGAUGAUGCCUGAAGAGCCUUGGUUUUUUG,-0.273
20,GACCAAUCUGCCCGCAGAGCUCGAGAACAUCUUAGGAUGCAGAGGAGGCAGGCUUCGGUGGCGCGAUAGCGCCAACGUCCUCAACCUCCAAUGCAUCCCACCACAUGAUGAUGCCUGAAGGGCCUUGGUUUUUUG,-0.374
21,GACCAAUCUGCCCUCAGAGCUCGAGAACAUCUUCGGAUGCAGAGGAGGCAGGCUUCGGUGGCGCGAUAGCGCCAACGUCCUCAACCUCCCAUGCAUCUCACCACAUGAUGAUGCCUGAAGAGCCUUGGUUUUUUG,-2.83
